According to patent US12319941B2, “Thermophilic recombinant type II pullulanase and application thereof” (Jiangnan University, priority 2019, dated 2025):
Entries after “also recorded” stand apart in the source; their conditions may differ. Like-named read-outs stand apart in the source and are kept apart here.

What was measured:
[1] = system: recombinant type II pullulanase Sumo-PulPy; test: Effect of metal ions and chemical reagents on the enzyme activity of Sumo-PulPy; type: biochemical, Pyrococcus yayanosii CH1; conditions: for Relative enzyme activity (%): pH 6.6; for effect on the enzyme activity of Sumo-PulPy (in words): reagent added to enzymatic reaction system
[2] = DNS method enzyme activity and kinetic parameters (Lineweaver-Burk) with pullulan as substrate; type: biochemical; conditions: for Km / Vmax: pullulan 1.25-40 mg/mL, optimum conditions
Description: (§1) The determination of the activity of recombinant type II pullulanase Sumo-PulPy was adopted the 3,5-dinitrosalicylic acid (DNS) method. The specific steps were as follows: reacting 100 μL reaction system (10 μL potassium phosphate buffer with different pH with a final concentration of 100 mM, 50 μL pullulan with a final concentration of 3% and 40 μL enzyme solution) at a certain temperature for 15 min, adding 100 μL DNS reaction solution, boiling in a water bath for 6 min, immediately cooling to room temperature with running water, adding and diluting with distilled water, mixing well, and determining […]. One enzyme activity unit (U) was defined as the amount of enzyme required to release reducing sugar correspond to the reduction capacity of 1 μmol glucose per minute under assay conditions.
Using different concentrations of pullulan (1.25, 2.5, 5, 10, 20, and 40 mg/mL) as the substrate, the enzyme activity was determined under the optimum conditions, the corresponding reaction rate was calculated, and Km value and Vmax were obtained by Linewear Burk method using Michaelis-Menten Equation.

[3] = Optimum pH and pH stability of the enzyme; type: biochemical; conditions: for optimum pH: 100 mM potassium phosphate buffer pH 5.8-8.0; for pH stability / pH tolerance: between pH 5.8 and 8.0
Description: as §1
Determination of the optimum pH: the purified Sumo-PulPy was subjected to enzymatic reaction in 100 mM potassium phosphate buffer (pH 5.8-8.0) at 95° C.
Determination of the pH stability of the enzyme: the enzyme solution was added into 100 mM potassium phosphate buffer (pH 5.8-8.0) and disposed at 4° C. for 4 h, and then the enzymatic reaction was performed at pH 6.6 and 95° C. to determine the remaining enzyme activity of Sumo-PulPy. […] Except for a 12% loss of enzyme activity after disposal at pH 5.8 for 4 h, the rest has almost no effect on the enzyme activity (FIG. 4).

[4] = type: biochemical; conditions: for optimum temperature: potassium phosphate buffer, 75-100° C.
Description: as §1
Determination of the optimum temperature of the enzyme: the enzymatic reaction was performed in a potassium phosphate buffer (pH 6.6) at 75-100° C.
Determination of the thermal stability of the enzyme: the enzyme solution with the same amount of enzyme was placed under the conditions of 80° C., 90° C., 95° C. and 100° C., respectively, and disposed for 2 h, 4 h, 6 h, 8 h and 10 h, respectively, and the enzymatic reaction was performed at pH 6.6 and 95° C. to determine the remaining enzyme activity of Sumo-PulPy.

[5] = Analysis of degradation products of Amylose from potato (MALDI-TOF/TOF); type: biochemical; conditions: 1% Amylose from potato, 95° C., 6 h
Description: (§2) The sample processing procedure was as follows: an appropriate amount of pure enzyme solution was mixed well with 1% pullulan and 1% Amylose from potato respectively, enzymatically hydrolyzed at 95° C. for 6 h, cooled to room temperature and then centrifuged at 12000 r/min for 20 min. And the supernatant was taken. The enzymatic hydrolysis products of pullulan and Amylose from potato were analyzed using high performance liquid chromatography (HPLC, conditions: Hpersil NH2 amino column (4.6×250 mm), column temperature 40° C., mobile phase (acetonitrile:water=67:33), flow rate 1.0 mL/min, injection volume 20 μL) and MALDI-TOF/TOF matrix-assisted laser […]/ionization tandem time-of-flight mass spectrometer respectively.

[6] = Analysis of degradation products of pullulan (HPLC); type: biochemical; conditions: 1% pullulan, 95° C., 6 h
Description: as §2

[7] = reagent 2 mM, 100% = no reagent, 95° C.
[8] = reagent 1%, 100% = no reagent, 95° C.

[Ca+2].[Cl-].[Cl-] [CaCl2]
Relative enzyme activity (%) [1, 7]: 71.3 ± 3.5%

[Cl-].[Cl-].[Co+2] [CoCl2]
Relative enzyme activity (%) [1]: 150.0 ± 4.8%

[Cl][Cu][Cl] [CuCl2]
Relative enzyme activity (%) [1, 7]: 45.9 ± 3.5%

O[C@@H](CS)[C@@H](O)CS [DTT]
Relative enzyme activity (%) [1, 8]: 337.2 ± 4.7%

O=S(=O)([O-])[O-].[Fe+2] [FeSO4]
Relative enzyme activity (%) [1, 7]: 183.1 ± 4.0%

[Cl-].[K+] [KCl]
Relative enzyme activity (%) [1, 7]: 104.1 ± 3.0% | effect on the enzyme activity of Sumo-PulPy (in words) [1]: weakly promote

[Cl-].[Cl-].[Mg+2] [MgCl2]
Relative enzyme activity (%) [1, 7]: 94.9 ± 3.4%

[Cl][Mn][Cl] [MnCl2]
Relative enzyme activity (%) [1, 7]: 91.2 ± 2.9%

[Cl-].[Na+] [NaCl]
Relative enzyme activity (%) [1]: 81.1 ± 4.2%

O=S(=O)([O-])[O-].[Ni+2] [NiSO4]
Relative enzyme activity (%) [1, 7]: 73.3 ± 3.3%

CCCCCCCC/C=C\CCCCCCCC(=O)OCCOCC(OCCO)C1OCC(OCCO)C1OCCO (centres unmarked) [Tween-80]
Relative enzyme activity (%) [1, 8]: 110.8 ± 2.9% | effect on the enzyme activity of Sumo-PulPy (in words) [1]: weakly promote

O=S(=O)([O-])[O-].[Zn+2] [ZnSO4]
Relative enzyme activity (%) [1, 7]: 0%

OCCS [β-mercaptoethanol]
Relative enzyme activity (%) [1, 8]: 157.4 ± 3.0%

Triton X-100
Relative enzyme activity (%) [1, 8]: 111.1 ± 3.6% | effect on the enzyme activity of Sumo-PulPy (in words) [1]: weakly promote

B1: Δ28N+Δ791C: combined truncation mutant of PulPy: first 28 N-terminal amino acids and amino acids after position 790 deleted (SEQ ID NO:3) (protein)
chain: MGHHHHHHMSDSEVNQEAKPEVKPEVKPETHINLKVSDGSSEIFFKIKKTTPLRRLMEAFAKRQGKEMDSLRFLYDGIRIQADQTPEDLDMEDNDIIEAHREQIGGQRGSPKPLNVIIVWHQHQPYYYDPVQGIYTRPWVRLHAANNYWKMAYYLSKYPDVHATIDLSGSLIAQLADYMNGAKDIYQIITEKIAKGEPLTVEEKWLMLQAPGGFFDHTIPWNGEPVTDKNGNPIRDFWNRYTELKNKMLQAKAKYANLPLEEQKVAVTNEFTEQDYIDLAVLFNLAWIDYNYIMNTPELKALYEKVDEGGYTREDVRTVLKHQMWLLNHTFEEHEKINLLLGNGNVEVTVVPYAHPIGPILNDFGWEEDFDAHVKKAHELYKKYLGAGKVTPKGGWAAESALNDKTLEILAENGWQWVMTDQLVLQKLGIPYTVENYYKPWVAEFNGRKIYLFPRDHALSDRVGFTYSGMNQYQAVEDFINELLRIQKQNYDGSLVYVITLDGENPWEHYPYDGKLFLETLYKRLTELQRQGLIRTLTPSEYIKLYGDKANKLTPQMMERLDLTGDNVEALLKAQSLGELYDMIGVKEEMQWPESSWIDGTLSTWIGEPQENYGWYWLYLARKALMAQKDKMSQENWEKAYEYLLRAEASDWFWWYGSDQSSGQDYTFDRYFKTYLYEIYRLAGLEPPSYLYGNYFPDGEPYTIRALEGLGEGQVKEYSSMSPLAEGVSVYFDGEGVHFVVKGNLEKFEISIYEKGERVGNTFTLLQERPGELKYSLFPFSRDSVGLLITKHVVYRDGKAEIYAATDYENTEKVGEASVKQVDGGVEIVVPFDYIKTPEDFYFAVSTVKDGELEIITTPIELKLPMEVKGVP
modifications: Protein translated from synthetic DNA
specific enzyme activity [2]: 32.18±0.92 U/mg | specific enzyme activity relative to Sumo-PulPy [2]: 5.99 times | Km [2]: 6.63 ± 0.56 mg/mL | Vmax [2]: 32.18±0.92 U/mg | optimum pH [3]: 6.4 | pH stability / pH tolerance [3]: good pH tolerance | improvement of optimum temperature compared with Sumo-PulPy [4]: 5 °C | thermal stability at 100° C. compared with Sumo-PulPy [4]: slightly improves | remaining enzyme activity after heat preservation at 100° C. for 2 h ([4]; 2 h): greater than 60% | optimum temperature [4]: 100 °C

B2: Sumo-PulPy: thermophilic recombinant type II pullulanase from Pyrococcus yayanosii CH1 (SEQ ID NO:1) with His and Sumo tags, expressed in E. coli (protein)
chain: MGHHHHHHMSDSEVNQEAKPEVKPEVKPETHINLKVSDGSSEIFFKIKKTTPLRRLMEAFAKRQGKEMDSLRFLYDGIRIQADQTPEDLDMEDNDIIEAHREQIGGQRGSRRVLSLFVVFVVLGSLLALQPEVKAGEPKPLNVIIVWHQHQPYYYDPVQGIYTRPWVRLHAANNYWKMAYYLSKYPDVHATIDLSGSLIAQLADYMNGAKDIYQIITEKIAKGEPLTVEEKWLMLQAPGGFFDHTIPWNGEPVTDKNGNPIRDFWNRYTELKNKMLQAKAKYANLPLEEQKVAVTNEFTEQDYIDLAVLFNLAWIDYNYIMNTPELKALYEKVDEGGYTREDVRTVLKHQMWLLNHTFEEHEKINLLLGNGNVEVTVVPYAHPIGPILNDFGWEEDFDAHVKKAHELYKKYLGAGKVTPKGGWAAESALNDKTLEILAENGWQWVMTDQLVLQKLGIPYTVENYYKPWVAEFNGRKIYLFPRDHALSDRVGFTYSGMNQYQAVEDFINELLRIQKQNYDGSLVYVITLDGENPWEHYPYDGKLFLETLYKRLTELQRQGLIRTLTPSEYIKLYGDKANKLTPQMMERLDLTGDNVEALLKAQSLGELYDMIGVKEEMQWPESSWIDGTLSTWIGEPQENYGWYWLYLARKALMAQKDKMSQENWEKAYEYLLRAEASDWFWWYGSDQSSGQDYTFDRYFKTYLYEIYRLAGLEPPSYLYGNYFPDGEPYTIRALEGLGEGQVKEYSSMSPLAEGVSVYFDGEGVHFVVKGNLEKFEISIYEKGERVGNTFTLLQERPGELKYSLFPFSRDSVGLLITKHVVYRDGKAEIYAATDYENTEKVGEASVKQVDGGVEIVVPFDYIKTPEDFYFAVSTVKDGELEIITTPIELKLPMEVKGVPIVDVVDPEGDDYGPGTYTYPTDPVFVPHHLDLLRFRILEQTDAYVMEFYFKELGGNVWNAPNGFSLQIIEVYLDFREGGNTSAIKMFPDGPGANVNLDPEHPWDLALRIAGWDYGNLIVLPNGTVYQGELQISADPVNNKIIVKVPKKYIQIDEDYGLWGVVLVGSQDGYGPDKWRPVAVEAEQWRLGGADQQAVIDNLAPRVVDLLVPEGFKPTQEEQLSSYDLEKKILATVLMIPLIEGSGGEEPAETPRETAIPAESPTTTEAPTETQSTTTSQGPTETQTGGGICGPVALLGLVMTPLLLRRRR
modifications: His and Sumo tags; Protein translated from synthetic DNA
hydrolysate of Amylose from potato [5]: mainly oligosaccharides such as pentasaccharides, hexasaccharides, heptasaccharides, and octasaccharides | specific enzyme activity [2]: 5.37±0.20 U/mg | specific enzyme activity ([2]; 95° C. and pH 6.6, no metal ions or chemical reagents added): 5.37±0.20 U/mg | Km [2]: 8.78 ± 0.89 mg/mL | Vmax [2]: 5.37±0.20 U/mg | optimum pH [3]: 6.6 | loss of enzyme activity after disposal at pH 5.8 for 4 h ([3]; 4° C., 4 h, pH 5.8, then assay at pH 6.6 and 95° C.): 12% | pH stability / pH tolerance [3]: better pH tolerance; also recorded: very stable | remaining enzyme activity after heat preservation at 95° C. for 10 h ([4]; 10 h): greater than 50% | optimum temperature [4]: 95 °C | pullulan hydrolysates [6]: most of the pullulan hydrolysates are maltotriose
